Consider one molecule from patent US20100330107A1.

The target in assay [1] is 24P4C12 (human) (UniProt Q53GD3). Nature of the assay: FACS on LNCaP cells, ADC at 0.011 nM, anti-hIgG-PE detection.
Assay [2] has the same target. In words: FACS on LNCaP cells, ADC at 0.033 nM, anti-hIgG-PE detection.
For assay [3] the target is unchanged. Nature of the assay: FACS on LNCaP cells, ADC at 0.098 nM, anti-hIgG-PE detection.
Assay [4] has the same target. In words: FACS on LNCaP cells, ADC at 0.293 nM, anti-hIgG-PE detection.
Assay [5] has the same target. Nature of the assay: FACS on LNCaP cells, ADC at 0.878 nM, anti-hIgG-PE detection.
The target is the same in assay [6]. Nature of the assay: FACS on LNCaP cells, ADC at 2.634 nM, anti-hIgG-PE detection.
For assay [7] the target is unchanged. In words: FACS on LNCaP cells, ADC at 7.901 nM, anti-hIgG-PE detection.
The target is the same in assay [8]. In words: FACS on LNCaP cells, ADC at 23.704 nM, anti-hIgG-PE detection.
For assay [9] the target is unchanged. In words: FACS on LNCaP cells, ADC at 71.111 nM, anti-hIgG-PE detection.
Assay [10] has the same target. In words: FACS on LNCaP cells, ADC at 106.667 nM, anti-hIgG-PE detection.
Assay [11] shares this target. Nature of the assay: FACS on LNCaP cells, ADC at 160.000 nM, anti-hIgG-PE detection.
Assay [12] shares this target. Nature of the assay: FACS saturation binding on LNCaP cells with endogenous 24P4C12, one site binding fit.

Sequence of UniProt Q53GD3 (Q53GD3 whole entry): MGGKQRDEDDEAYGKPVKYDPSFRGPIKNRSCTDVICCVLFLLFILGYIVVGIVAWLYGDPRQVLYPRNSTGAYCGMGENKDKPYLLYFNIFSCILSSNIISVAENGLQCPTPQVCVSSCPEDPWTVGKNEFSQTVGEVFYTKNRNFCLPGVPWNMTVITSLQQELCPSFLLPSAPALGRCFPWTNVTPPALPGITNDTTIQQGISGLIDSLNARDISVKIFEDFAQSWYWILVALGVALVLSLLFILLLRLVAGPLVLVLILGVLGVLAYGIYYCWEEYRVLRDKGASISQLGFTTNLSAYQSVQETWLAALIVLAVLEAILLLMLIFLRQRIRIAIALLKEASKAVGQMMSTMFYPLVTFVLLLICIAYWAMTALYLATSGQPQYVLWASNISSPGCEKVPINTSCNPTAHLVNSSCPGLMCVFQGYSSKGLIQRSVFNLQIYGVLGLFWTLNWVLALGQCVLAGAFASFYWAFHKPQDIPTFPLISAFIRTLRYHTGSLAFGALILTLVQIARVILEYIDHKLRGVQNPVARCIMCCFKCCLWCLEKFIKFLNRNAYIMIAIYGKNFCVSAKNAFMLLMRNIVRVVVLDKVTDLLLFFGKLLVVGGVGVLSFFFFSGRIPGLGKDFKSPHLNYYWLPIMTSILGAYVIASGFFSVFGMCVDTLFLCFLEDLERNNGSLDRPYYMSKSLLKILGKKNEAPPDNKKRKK

B1: Ha5-1(5)2.1vcMMAE (antibody, human IgG2, kappa, V domains shown)
VH: QVQLVESGGGVVQPGRSLRLSCAASGFTFSSYGMHWVRQAPGKGLEWVAVMSYDGSKKFYTDSVKGRFTISRDNSKNTLYLQMNSLRAEDTAVYYCARDGGDYVRYHYYGMDVWGQGTTVTVSS
VL: DIQMTQSPSTLSASIGDRVTITCRASQGISYYLAWYQQKPGKIPKLLIYDTSSLQSGVPSRFSGSRSGTDLSLTISSLQPEDVATYYCQRYDSAPLTFGGGTKVEIKR
modifications: vcMMAE (Val-Cit linker with monomethyl auristatin E) on cysteine thiols freed by partial reduction with TCEP; p about 3.6 drugs per antibody; positions not given
Broadly, the Kd is the constant that tells how readily two partners part at equilibrium. A low value points to higher affinity. With B1, the MFI in the assay with 24P4C12 (human) [1] came to 7 MFI; in the assay with 24P4C12 (human) [2], 9 MFI; in the assay with 24P4C12 (human) [3] it was 15 MFI; in the assay with 24P4C12 (human) [4] it was 28 MFI; in the assay with 24P4C12 (human) [5], 54 MFI; with 24P4C12 (human) [6] it was 70 MFI. Besides, the MFI in the assay with 24P4C12 (human) [7] turned out to be 86 MFI; with 24P4C12 (human) [8] it was 97 MFI; with 24P4C12 (human) [9], 108 MFI; with 24P4C12 (human) [10] it was 114 MFI; with 24P4C12 (human) [11] it was 116 MFI. This molecule also displayed a Kd in the assay with 24P4C12 (human) [12] of 1.05 nM.
